Experimental data reported in patent US12241094B2, “Phenazine degrading agents and related compositions, methods and systems for interfering with viability of bacteria” (priority 2016, dated 2025).
Entries after “also recorded” stand apart in the source; their conditions may differ.

Assays:
P. aeruginosa biofilm = assay: Optical density of P. aeruginosa biofilm; format: cell-based; details: PodA vs inactive E154A; 1-OH-PHZ vs 1% DMSO
[1] = test system: P. aeruginosa PA14 biofilms; assay: Biofilm formation, surface coverage (chambered coverglass, DAPI); format: cell-based; details: for biofilm surface coverage: 5 hours
Description: Biofilm experiments. For all experiments involving inactivated PodA, either the E154A mutant or PodA30-162 that was subjected to a 1 hour treatment at 98° C. was used. To test the ability of PodA30-162 to degrade PYO in the presence of DNA, genomic DNA (gDNA) from P. aeruginosa PA14 was used in modified versions of previously described assays (59). For experiments using DNA pellets, 0.5 mg of gDNA was pelleted in the presence of 300 mM sodium acetate, pH 5.2 and 70% ethanol. Pellets were washed with 70% ethanol and dried. 200 μL of 800 μM PYO was added to the gDNA pellet without mixing and left to sit at room temperature for 6 hours to allow for diffusion of PYO into the gDNA pellet. The pellet was washed once with 70% EtOH, and submerged in a solution containing 10 mM Tris, pH 7.0 and 40% isopropanol. The pellet remained blue, consistent with an association of PYO with DNA. PodA30-162 was added to the isopropanol solution to a final concentration of 2 μg mL^−1 and left to sit for 3 hours to allow for the reaction to proceed. Tubes were imaged before and after PodA30-162 treatment. For experiments using solubilized gDNA, a 400 μg mL^−1 solution of gDNA was mixed with PYO and allowed to equilibrate for 6 hours. The PYO gDNA mixture was amended with 1 μg mL^−1 PodA30-162 and loss of PYO was monitored on a BioTek Synergy 4 microplate reader (BioTek) plate reader at 690 nm. Standards were included to quantify PYO loss over time. To assess biofilm formation in the presence of PodA30-162, biofilms were grown in Nunc Lab-Tek chambered coverglass slides (8-well, 0.8 cm^2 area, supplier #155411) using a modified protocol (22). PA14 was inoculated into succinate minimal medium and grown overnight to stationary phase. Cells were resuspended in fresh medium and diluted to a starting OD500 of 0.5 in succinate minimal medium. PodA30-162 (2 μg mL^−1, final concentration) or DNase (20 μg mL^−1) (22) was added and 250 μL was added to each well of the 8-well chambered coverglass. Cultures were grown for 5 hours at 37° C. and 100 rpm (Innova 44 shaking incubator, New Brunswick) in a humidified chamber. After incubation, liquid was removed from each well by drawing with a pipet tip placed in the corner of each well and chambers were washed twice with 400 μL of biofilm wash (Tris buffer, pH 7.6 and 100 mM NaCl) to remove planktonic and loosely bound cells. Attached biomass was stained by adding 450 μL biofilm wash containing 10 μg mL^−1 DAPI (4′,6-diamidino-2-phenylindole) (Santa Cruz Biotechnology). Surface associated biomass was imaged on a Leica TCS SPE confocal microscope with a ACS APO 40×/1.15 oil immersion objective. A 405 nm solid-state laser was used for excitation, and data was collected from 420-500 nm. […]

[2] = test system: Pa PA14 biofilm transcriptome; assay: RNASeq transcriptome of biofilm cultures; format: cell-based, P. aeruginosa; details: 5 h
Description: Because 1-OH-PHZ induces iron starvation in A. fumigatus (Briard et al. (2015) Scientific Reports. 2015; 5), it was speculated that the abrogation of biofilm development in P. aeruginosa grown in the presence of either PodA or 1-OH-PHZox may be mediated by a response to Fe-limitation. To test this idea, changes to the transcriptome of Pa PA14 by RNASeq were assessed. After 5 h of incubation in the presence of PodA (1 μM), 1-OH-PHZ (200 μM) or PYO (200 μM), RNA was prepared from 1 ml of biofilm cultures (250 μl pooled from 4 static biofilm chambers) for analysis on an Illumina HiSeq 2500 sequencer at the Millard and Muriel Jacobs Genetics and Genomics Laboratory, as previously described (Babin et al. (2016) Proc Natl Acad Sci USA. 113(5):E597-E605; Kreamer et al. (2015) M Bio. 2015; 6(2):e02549. Epub 2015/02/26). This experiment was designed to identify genes that were likely to be specifically affected by PodA's transformation of PYO to 1-OH-PHZ under a condition that inhibited biofilm formation (FIG. 20A). As a reference for genes responsive to iron availability, these transcriptomes were compared to those previously found to respond to Fe(II) shock (Kreamer et al. (2015) M Bio. 2015; 6(2):e02549. Epub 2015/02/26).

B1: PodA30-162: truncated pyocyanin demethylase encoded by MFORT_14352 of Mycobacterium fortuitum lacking N-terminal helix, SEQ ID NO: 2 (protein, listed as Mycobacterium fortuitum)
chain: MDGRGGRSTTEPVTMTLDVKNDQVAKHDFGKPGMDVGDMDIFSDILSVDGKQVGYDGGACFFTNVTPDNPMTYCELTIHLDAGEIFARSLTPHTLAPFTMAITGGTGEYANSKGELTVSGVATPDEKYELKLTKAENLYFQ
P. aeruginosa biofilm
  optical density of biofilm: significantly decreased
[1]; PodA30-162 2 μg mL^−1, DNase 20 μg mL^−1, vs. PodA-inactive
  biofilm surface coverage: reduced; also recorded: lower
[1]; representative images, 82.7 percent in the absence of PodA30-162
  biofilm surface coverage: 43.5%
[1]; after 5 hours of growth
  phenazines in biofilm supernatants by HPLC: conversion of PYO to 1-OH-PHZ
[2]
  expression of small gene cluster incl. QapR regulon: upregulated modestly
[2]; PodA 1 μM, 1-OH-PHZ 200 μM, PYO 200 μM
  log(2) changes relative to untreated control, metal scavenging and starvation response genes (FIG. 21A): ~0 log(2)
